This note sets out measurements from US20240092889A1 (Chugai, published 2024).

Where a chain is given by its changes, count along the chain named. Names and notes keep the numbering of the source.

For test [1], the target named is T1, recombinant human C1r2s2 tetramer (human, UniProt P09871 16-688; P00736 18-705).
T1 construct: C1s and C1r co-expressed in HEK293/FreeStyle 293-F and purified from conditioned medium
T1 chain 1: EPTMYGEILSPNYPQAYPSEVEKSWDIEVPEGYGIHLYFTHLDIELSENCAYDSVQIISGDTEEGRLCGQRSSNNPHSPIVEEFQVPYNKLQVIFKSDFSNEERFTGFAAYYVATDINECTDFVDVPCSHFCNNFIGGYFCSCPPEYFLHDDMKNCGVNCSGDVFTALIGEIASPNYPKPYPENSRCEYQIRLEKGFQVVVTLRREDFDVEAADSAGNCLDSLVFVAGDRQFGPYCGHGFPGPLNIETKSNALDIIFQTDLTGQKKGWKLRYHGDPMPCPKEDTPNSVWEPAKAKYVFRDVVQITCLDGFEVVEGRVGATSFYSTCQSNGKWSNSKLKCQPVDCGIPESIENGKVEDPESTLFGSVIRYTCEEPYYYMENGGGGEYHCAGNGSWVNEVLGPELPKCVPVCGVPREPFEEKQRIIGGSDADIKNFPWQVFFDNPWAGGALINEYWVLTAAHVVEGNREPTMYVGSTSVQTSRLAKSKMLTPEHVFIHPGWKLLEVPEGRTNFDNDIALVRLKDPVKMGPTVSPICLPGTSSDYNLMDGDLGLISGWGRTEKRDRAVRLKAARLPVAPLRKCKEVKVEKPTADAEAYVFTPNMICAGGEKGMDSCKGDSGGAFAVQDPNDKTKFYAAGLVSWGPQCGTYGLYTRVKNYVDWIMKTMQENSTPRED
T1 chain 2: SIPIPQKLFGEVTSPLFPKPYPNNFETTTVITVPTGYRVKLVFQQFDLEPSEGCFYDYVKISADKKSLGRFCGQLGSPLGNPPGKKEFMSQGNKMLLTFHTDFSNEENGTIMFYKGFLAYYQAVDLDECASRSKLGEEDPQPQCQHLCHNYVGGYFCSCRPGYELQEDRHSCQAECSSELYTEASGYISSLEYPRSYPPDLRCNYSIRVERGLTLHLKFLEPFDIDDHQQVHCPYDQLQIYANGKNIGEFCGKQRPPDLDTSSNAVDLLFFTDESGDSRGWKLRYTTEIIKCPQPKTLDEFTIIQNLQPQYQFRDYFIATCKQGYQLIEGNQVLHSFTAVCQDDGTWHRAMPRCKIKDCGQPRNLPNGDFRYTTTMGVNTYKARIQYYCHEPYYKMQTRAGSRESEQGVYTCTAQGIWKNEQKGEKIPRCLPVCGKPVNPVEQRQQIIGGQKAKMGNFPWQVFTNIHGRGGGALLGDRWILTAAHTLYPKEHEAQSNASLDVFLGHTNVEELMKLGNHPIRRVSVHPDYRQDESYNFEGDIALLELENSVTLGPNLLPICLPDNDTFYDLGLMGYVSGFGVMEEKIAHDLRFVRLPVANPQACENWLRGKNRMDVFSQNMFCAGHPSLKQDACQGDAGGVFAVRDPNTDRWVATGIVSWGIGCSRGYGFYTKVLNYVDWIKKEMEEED
The test can be described thus: SPR (BIACORE T200), 37 C, ratio of KD at pH 5.8 to KD at pH 7.4. How it is done: (§1) KD (dissociation constant) value of each samples at pH 7.4 and pH 5.8 are determined at 37 degrees C. using BIACORE® T200 instrument (GE Healthcare). Purified Mouse Anti-Human Ig kappa Light Chain (GE Healthcare) can be immobilized onto all flow cells of a CMS sensor chip using an amine coupling kit (GE Healthcare). 20 mM ACES, 150 mM NaCl, 1.2 mM CaCl2, 1 mg/mL BSA (IgG-free), 1 mg/mL CMD, 0.05% Tween® 20, 0.005% NaN3, pH 7.4 or pH 5.8 buffer were used as running buffer. Each antibody can be captured onto the sensor surface by Anti-Human Ig kappa Light chain. Antibody capture levels are aimed at 50 resonance unit (RU). […] Sensor surface is regenerated each cycle with, e.g., Glycine pH 2.0 (GE Healthcare). KD values were obtained using BIACORE® T200 Evaluation software, version 2.0 (GE Healthcare).
On the technique in general: Surface plasmon resonance follows binding to a sensor surface in real time, without labels.

The target of test [2] is T1, recombinant human C1r2s2 tetramer. The test can be described thus: SPR (BIACORE T200), 37 C, Ab captured via anti-human Ig kappa, human C1r2s2 as analyte, pH 5.8. How it is done:
as §1

Test [3] shares this target. Description: SPR (BIACORE T200), 37 C, Ab captured via anti-human Ig kappa, human C1r2s2 as analyte, pH 7.4. How it is done:
as §1

For test [4] the target is unchanged. The test can be described thus: SPR (BIACORE), antibody captured by ProL, human C1r2s2 injected at 100 nM, pH 7.4, 37 C. How it is done: Analysis of interaction between antibody variants and the human C1r2s2 prepared as mentioned above was carried out at pH7.4, at 37 degrees C. using BIACORE® T200 instrument (GE Healthcare) or BIACORE® 4000 (GE Healthcare). ProL (BioVision) was immobilized onto a CM4 sensorchip using amine coupling kit (GE Healthcare) according to the recommended settings by GE Healthcare. Antibodies and analytes were diluted into the respective running buffers, ACES pH7.4 (20 mM ACES (N-(2-Acetamido)-2-aminoethanesulfonic acid), 150 mM NaCl, 1.2 mM CaCl2, 1 mg/ml bovine serum albumin (BSA), 1 mg/ml CMD (CM-Dextran sodium salt), 0.05% Tween® 20 (polysorbate 20), 0.005 w/v % NaN3). Each antibody was captured onto the sensor surface by ProL. Antibody capture levels were aimed at 200 resonance units (RU). Then, recombinant human C1r2s2 was injected at concentrations of 25 and 100 nM followed by dissociation at pH7.4. The surface was regenerated using 10 mM Glycine-HCl, pH1.5.

B1: COS0637cc-TT91R (antibody, human IgG1)
heavy: QSLEESGGRLVTPGTPLTLTCTASGFSLSAYAMNWVRQAPGKGLEWIGLIYGSGSTFYASWAKGRFTISKTSTTVDLKMTSLTTEDTATYFCARGRSVNYNSDFKLWGPGTLVTVSSASTKGPSVFPLAPSSKSTSGGTAALGCLVKDYFPEPVTVSWNSGALTSGVHTFPAVLQSSGLYSLSSVVTVPSSSLGTQTYICNVNHKPSNTKVDKRVEPKSCDKTHTCPPCPAPEYLGGDSVFLFPPKPKDVLMISRTPEVTCVVIDVSHEDPEVKFNWYVDGVEVHNAKTKPREEQYNSTYRVVSVLPVLHRDWLNGKEYKCKVSNKALPKPIEKTISKAKGQRREPQVYTLPPSREEMTKNQVSLTCLVKGFYPSDIAVEWESNGQPENNYKTTPPVLDSDGSFFLYSKLTVDKSRWQQGNVFSCSVLHEALHAHTTRKELSLSP
light: QVLTQTPSSVSAAVGGTVTINCQASQSLHDKKNLAWYQHKPGQRPNLLIYGASTLESGVPSRFKGSGSGTEYTLTISDLECDDAAAYYCQGEFSCSSADCNTFGGGTKVEIKRTVAAPSVFIFPPSDEQLKSGTASVVCLLNNFYPREAKVQWKVDNALQSGNSQESVTEQDSKDCTYSLSSTLTLSKADYEKHKVYACEVTHQGLSSPVTKSFNRGEC
notes: Rabbit variable regions (chimera) with modified human IgG1 CH TT91R and modified human CL KOMC; also called COS637cc-TT91R
Consider B1, for which, in test [1], the “KD (pH 5.8)/KD (pH 7.4)” value was 10. In addition, the Kd (in general, a measure of binding affinity in units of concentration) in test [2] worked out at 43.3 nM; in test [3], 4.48 nM.

B2: AL0742 (antibody, human IgG1, kappa, V domains shown)
VH: QVQLVESGGGVVQPGRSLRLSCAASGFTFSAYAMNWIRQPPGKGLEWIGLIYGSGSTFYASWAKGRVTISVDTSKNQFSLKLSSVTAADTAVYYCARGRSVNYNSDFHLWGQGTLVTVSS
VL: DIQMTQSPSSLSASVGDRVTITCQASQSLHDKKNLAWYQQKPGQPPKLLIYGASTLESGVPSRFSGSGSGTDFTLTISSLQPEDFATYYCQGEFSWSSADRNTFGQGTKVEIKR
notes: COS0637temp with VL C94W/C95dR (Kabat), already in the VL entry
Turning to B2, the binding result in test [4] was “no binding (tested: 100 nM)”.

B3: COS0637pHv7-TT91R (antibody, V domains shown)
VH: B2 VH with S56H, T57E, K64E, G65E, V101K
VL: B2 VL with S28I, G52Q, T55Q, Q91H, W96Y, R101L
Consider B3, for which the “KD (pH 5.8)/KD (pH 7.4)” value in test [1] is 72. For the same molecule, the values for the Kd in test [2] and in test [3] were 353 nM and 4.9 nM, respectively.

B4: AL0747 (antibody, human IgG1, kappa, V domains shown)
VH: B2 VH
VL: B2 VL with W96M
notes: COS0637temp with VL C94M/C95dR (Kabat), already in the VL entry
As for B4, the binding result in test [4] is recorded as “no binding (tested: 100 nM)”.

B5: AL0751 (antibody, human IgG1, kappa, V domains shown)
VH: B2 VH
VL: B2 VL with W96A, R101V
notes: COS0637temp with VL C94A/C95dV (Kabat), already in the VL entry
As for B5, in test [4], the binding result was “no binding (tested: 100 nM)”.

B6: COS0637pHv6-TT91R (antibody, V domains shown)
VH: B2 VH with T28S, S56H, T57E, K64E, G65E, V101K, N104V, D106G
VL: B2 VL with S26Q, S28I, K33R, G52Q, T55Q, Q91H, W96Y, S97E, R101L
In the case of B6, the “KD (pH 5.8)/KD (pH 7.4)” value in test [1] came out at 100. Further, the Kd in test [2] stood at 838 nM; in test [3], 8.39 nM.

B7: AL0752 (antibody, human IgG1, kappa, V domains shown)
VH: B2 VH
VL: B2 VL with W96V, R101A
notes: COS0637temp with VL C94V/C95dA (Kabat), already in the VL entry
Turning to B7, the binding result in test [4] was “no binding (tested: 100 nM)”.

B8: AL0745 (antibody, human IgG1, kappa, V domains shown)
VH: B2 VH
VL: B2 VL with W96E, R101L
notes: COS0637temp with VL C94E/C95dL (Kabat), already in the VL entry
In the case of B8, the binding result in test [4] is “no binding (tested: 100 nM)”.

B9: COS0637pHv1-TT91R (antibody, V domains shown)
VH: B2 VH with G55K, K64E, V101K
VL: B2 VL with W96C, R101C
Consider B9, for which the “KD (pH 5.8)/KD (pH 7.4)” value in test [1] is 209. In addition, the Kd was determined as 3600 nM in test [2] and 17.2 nM in test [3].

B10: COS0637h-TT91R (antibody, human IgG1, V domains shown)
VH: B2 VH with H108K
VL: B2 VL with W96C, R101C
notes: Humanized COS0637cc; modified human IgG1 CH TT91R, human CL SK1
As to B10, the “KD (pH 5.8)/KD (pH 7.4)” value in test [1] is 14. The figures for the dissociation constant Kd in test [2] and in test [3] were 362 nM and 25.4 nM, respectively.

B11: AL0753 (antibody, human IgG1, kappa, V domains shown)
VH: B2 VH
VL: B2 VL with W96V, R101V
notes: COS0637temp with VL C94V/C95dV (Kabat), already in the VL entry
As to B11, the binding result in test [4] is “no binding (tested: 100 nM)”.

B12: AL0748 (antibody, human IgG1, kappa, V domains shown)
VH: B2 VH
VL: B2 VL with W96I, R101F
notes: COS0637temp with VL C94I/C95dF (Kabat), already in the VL entry
In the case of B12, the binding result in test [4] is listed as “no binding (tested: 100 nM)”.

B13: AL0750 (antibody, human IgG1, kappa, V domains shown)
VH: B2 VH
VL: B2 VL with W96M, R101L
notes: COS0637temp with VL C94M/C95dL (Kabat), already in the VL entry
Consider B13, for which the binding result in test [4] is given as “no binding (tested: 100 nM)”.

B14: AL0746 (antibody, human IgG1, kappa, V domains shown)
VH: B2 VH
VL: B2 VL with W96R, R101Y
notes: COS0637temp with VL C94R/C95dY (Kabat), already in the VL entry
In the case of B14, the binding result in test [4] was “no binding (tested: 100 nM)”.

B15: AL0749 (antibody, human IgG1, kappa, V domains shown)
VH: B2 VH
VL: B2 VL with W96L
notes: COS0637temp with VL C94L/C95dR (Kabat), already in the VL entry
Turning to B15, the binding result in test [4] is reported as “no binding (tested: 100 nM)”.

B16: COS0637pHv4-TT91R (antibody, V domains shown)
VH: B2 VH with T28S, S56H, T57E, K64E, G65E, V101K, N104V, D106G
VL: B2 VL with S28I, G52Q, T55Q, Q91H, W96Y, S97E, R101L, T103Q
In the case of B16, the “KD (pH 5.8)/KD (pH 7.4)” value in test [1] came out at 99. For the same molecule, the Kd in test [2] came to 811 nM; in test [3], 8.23 nM.

B17: COS0637pHv2-TT91R (antibody, V domains shown)
VH: B2 VH with T28R, S54K, G65E
VL: B2 VL with W96C, R101C
Take B17: the “KD (pH 5.8)/KD (pH 7.4)” value in test [1] stood at 44. Also, the Kd is 588 nM in test [2] and 13.4 nM in test [3].
